# Test results from IntAct's records for PubMed 25893917.
# B1: Twist-related protein 1 (Mus musculus), P26687 (parent)
# chain: MMQDVSSSPVSPADDSLSNSEEEPDRQQPASGKRGARKRRSSRRSAGGSAGPGGATGGGIGGGDEPGSPAQGKRGKKSAGGGGGGGAGGGGGGGGGSSSGGGSPQSYEELQTQRVMANVRERQRTQSLNEAFAALRKIIPTLPSDKLSKIQTLKLAARYIDFLYQVLQSDELDSKMASCSYVAHERLSYAFSVWRMEGAWSMSASH
# partner: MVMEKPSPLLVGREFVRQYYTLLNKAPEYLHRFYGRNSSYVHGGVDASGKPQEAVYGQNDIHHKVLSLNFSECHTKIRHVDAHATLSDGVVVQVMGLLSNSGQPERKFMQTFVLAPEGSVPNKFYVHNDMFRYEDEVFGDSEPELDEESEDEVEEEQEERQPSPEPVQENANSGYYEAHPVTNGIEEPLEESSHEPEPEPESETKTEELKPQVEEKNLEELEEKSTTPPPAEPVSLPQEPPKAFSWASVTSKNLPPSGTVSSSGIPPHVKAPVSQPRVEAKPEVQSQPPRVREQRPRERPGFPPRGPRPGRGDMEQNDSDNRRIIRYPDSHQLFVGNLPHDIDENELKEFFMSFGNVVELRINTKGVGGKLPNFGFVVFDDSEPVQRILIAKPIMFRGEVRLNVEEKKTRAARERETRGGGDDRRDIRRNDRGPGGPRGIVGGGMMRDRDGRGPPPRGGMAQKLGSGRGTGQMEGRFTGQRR
# Variants of: B1
# Details: with G3BP2, Q9UN86
row,Variant,effect of a mutation on the interaction
1,MMQDVSSSPVSPADDSLSNSEEEPDRQQPASGKRGARKRRSSRRSAGGSAGPGGATGGGIGGGDEPGSPAQGKRGKKSAGGGGGGGAGGGGGGGGGSSSGGGSPQSEEELQTQRVMANVRERQRTQSLNEAFAALRKIIPTLPSDKLSKIQTLKLAARYIDFLYQVLQSDELDSKMASCSYVAHERLSYAFSVWRMEGAWSMSASH [Y107E],decreasing interaction strength
